Data taken from article PMC7261735.

Experiments:
Assay in all cases: SPR; Biacore T200; recombinant human TNFα immobilized on a CM5 chip, antibody captured through binding to TNFα; association and dissociation globally fit to a 1:1 binding model; average of 3 intra-assay replicates per lot
infliximab (EU) = target: infliximab (EU)
infliximab (US) = target: infliximab (US)
ABP 710 = target: ABP 710

Row | Substance | Kd (infliximab (EU)) [nM] | Kd (infliximab (US)) [nM] | Kd (ABP 710) [nM]
1 | FcγRIIIa (158V) (receptor) | 59 to 89 | 63 to 93 | –
2 | FcγRIIIa (158V) | – | – | 68 to 80
